The target in experiment [1] is T1, recombinant His-Strep tagged human Tyro3 extracellular domain (human, UniProt Q06418 41-429).
T1 construct: also called hTyro3 ECD; full Tyro3 ECD
T1 sequence: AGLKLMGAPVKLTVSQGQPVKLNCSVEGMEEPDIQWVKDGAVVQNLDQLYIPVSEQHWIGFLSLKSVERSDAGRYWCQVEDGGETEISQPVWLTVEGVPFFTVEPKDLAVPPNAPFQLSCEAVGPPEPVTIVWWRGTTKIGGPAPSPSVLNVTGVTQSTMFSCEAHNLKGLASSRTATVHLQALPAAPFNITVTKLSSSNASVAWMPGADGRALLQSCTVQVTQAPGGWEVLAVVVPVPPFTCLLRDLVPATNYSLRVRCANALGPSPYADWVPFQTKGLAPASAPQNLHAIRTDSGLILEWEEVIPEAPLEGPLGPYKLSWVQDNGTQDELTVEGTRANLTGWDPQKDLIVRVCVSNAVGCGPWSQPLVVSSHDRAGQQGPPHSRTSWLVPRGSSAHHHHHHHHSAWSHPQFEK
Kind of experiment: BLI (Octet K2), 1:1 global fit; analyte concentration of this kobs not given. The method, then:
(§1) Affinity determinations were performed using biolayer interferometry on an Octet K2 instrument (Pall/ForteBio) equipped with anti-Human Kinetics (AHC) disposable fiber-optic biosensor tips. All experiments were conducted at 30° C. in the recommended Fortebio running buffer (PBS with 0.1% (w/v) bovine serum albumin (BSA) and 0.02% (v/v) Tween_20). This buffer was also used for dilution of ligand (here the antibody) and of the analyte (here the extra cellular domain of human Tyro3 protein). Samples in a 96-well microplates (No. Black polypropylene low binding plates, Greiner Bio-One, Frickenhausen, Germany) were agitated at 1000 rpm. […] Between measurements, the anti-human Tyro3 biosensor surfaces were regenerated by exposing them to 3 cycles of 5 sec in 10 mM glycine, pH 1.5, followed by 5 sec in PBS. Association phase was measured for 300 seconds, dissociation phase depending on the interaction for 300 seconds depending on dissociation step. All measurements were corrected for baseline drift using the double reference substraction, that is to say by subtracting a control sensor without ligand exposed to each concentration of the extra cellular domain of human Tyro3 protein and a reference well with ligand submitted to running buffer only. Affinity, association (kon) and dissociation rate constants (koff) for each antibody were calculated applying a 1:1 interaction model fitting global, Rmax linked by sensor) on the ForteBio data analysis software 9.0.

Experiment [2] concerns the target T1, recombinant His-Strep tagged human …. As to the kind of experiment: BLI (Octet K2), IgG on AHC tips, hTyro3 ECD analyte, 1:1 global fit; KD Error 9,68E-10. The method, then: as §1, with “All measurements were corrected for baseline drift using the double reference substraction, that is to say by subtracting a control sensor without ligand exposed to each concentration of the extra cellular domain of human Tyro3 protein and a reference well with ligand submitted to running buffer only.” left out
(In general: BLI is a label-free optical method that tracks binding on a fibre tip over time.)

For experiment [3] the target is unchanged. Kind of experiment: BLI (Octet K2), IgG on AHC tips, hTyro3 ECD analyte, 1:1 global fit; kon Error 1,63E+03. Here is the method:
as §1, with “All measurements were corrected for baseline drift using the double reference substraction, that is to say by subtracting a control sensor without ligand exposed to each concentration of the extra cellular domain of human Tyro3 protein and a reference well with ligand submitted to running buffer only.” left out

Experiment [4] shares this target. As to the kind of experiment: BLI (Octet K2), IgG on AHC tips, hTyro3 ECD analyte, 1:1 global fit; kdis(1/s); kdis Error 6,46E-05. Here is the method:
as §1, with “All measurements were corrected for baseline drift using the double reference substraction, that is to say by subtracting a control sensor without ligand exposed to each concentration of the extra cellular domain of human Tyro3 protein and a reference well with ligand submitted to running buffer only.” left out

The target of experiment [5] is T2, cynomolgus Tyro3 ECD, His-Strep tagged.
T2 construct: also called cyno TYRO3 ECD 8hisstrep
T2 extracellular domain: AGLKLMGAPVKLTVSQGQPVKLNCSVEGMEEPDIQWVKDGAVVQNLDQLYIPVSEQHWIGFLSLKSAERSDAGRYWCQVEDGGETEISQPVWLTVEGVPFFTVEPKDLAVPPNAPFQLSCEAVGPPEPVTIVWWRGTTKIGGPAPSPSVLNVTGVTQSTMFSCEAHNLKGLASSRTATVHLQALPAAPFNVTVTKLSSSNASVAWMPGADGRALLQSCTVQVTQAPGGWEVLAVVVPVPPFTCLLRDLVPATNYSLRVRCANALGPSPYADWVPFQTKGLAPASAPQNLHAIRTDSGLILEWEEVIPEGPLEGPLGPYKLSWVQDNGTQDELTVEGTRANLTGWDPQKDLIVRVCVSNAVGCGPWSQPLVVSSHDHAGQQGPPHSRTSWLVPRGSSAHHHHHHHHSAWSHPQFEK
As to the kind of experiment: sandwich ELISA, Strep-tagged cynomolgus Tyro3 ECD captured on StrepMAB plate, IgG 3-fold from 3 µg/mL, anti-human IgG1-HRP. The method, then:
[The procedure below names another species; the source lists this species under the same test.] (§2) A double sandwich ELISA was developed. This assay consisted in measuring the binding of the anti-Tyro3 antibodies to be tested on immobilized strep-tagged entire human Tyro3 ECD captured directly on ELISA plate pre-coated with an anti-strep mAb (StrepMAB-Immo coated microplates from IBA biotech). Briefly, the 96 wells of StrepMAB-Immo coated microplate were washed three times with 300 μL of the PBS Tween 0.2% (referred as ELISA washing solution). The capture of an excess of purified strep tagged hTyro3 ECD protein was achieved by a one hour incubation at room temperature. In these experiments, 3 μg of purified protein diluted in PBS, BSA 1% (referred as ELISA diluent solution) were immobilized per well. The wells were washed three times with 300 μL of the washing solution. The non-specific binding sites on the well surface were blocked during 60 min at room temperature with 200 μL/well of blocking solution (PBS, BSA 3%). The wells were washed five times with 300 μL of the washing solution. Then, 100 μl (in duplicates) of the different concentrations of anti-Tyro3 antibodies to be tested diluted in ELISA diluent solution, were added per well and allowed to incubate during 1 hour at room temperature. An Irrelevant control IgG2656 was also added in this experiment. For anti-Tyro3 antibodies in the ScFv format, experiments were performed with 6 concentrations in duplicates (FIG. 3A). For anti-Tyro3 antibodies in the IgG format, experiments were performed with 9 concentrations in duplicates (FIG. 3B). […] For IgGs experiments, starting concentration for first dilution was 3 μg/ml and then dilutions of 3 fold in the ELISA diluent solution were performed. The wells were washed five times with 300 μL of the washing solution. […] The mix was allowed to incubated 60 min at room temperature.

Experiment [6] addresses T1, recombinant His-Strep tagged human …. Kind of experiment: BLI (Octet K2), IgG on AHC tips, hTyro3 ECD analyte, 1:1 global fit; KD Error 2,48E-09. Here is the method:
as §1, with “All measurements were corrected for baseline drift using the double reference substraction, that is to say by subtracting a control sensor without ligand exposed to each concentration of the extra cellular domain of human Tyro3 protein and a reference well with ligand submitted to running buffer only.” left out

Experiment [7] shares this target. As to the kind of experiment: BLI (Octet K2), IgG on AHC tips, hTyro3 ECD analyte, 1:1 global fit; kon Error 9,23E+02. The method, then:
as §1, with “All measurements were corrected for baseline drift using the double reference substraction, that is to say by subtracting a control sensor without ligand exposed to each concentration of the extra cellular domain of human Tyro3 protein and a reference well with ligand submitted to running buffer only.” left out

The target is the same in experiment [8]. As to the kind of experiment: BLI (Octet K2), IgG on AHC tips, hTyro3 ECD analyte, 1:1 global fit; kdis(1/s); kdis Error 1,11E-04. Here is the method: as §1, with “All measurements were corrected for baseline drift using the double reference substraction, that is to say by subtracting a control sensor without ligand exposed to each concentration of the extra cellular domain of human Tyro3 protein and a reference well with ligand submitted to running buffer only.” left out

Experiment [9] deals with T3, recombinant human Tyro3 on transfected HEK293 cells (human, UniProt Q06418).
T3 construct: membrane receptor on HEK293 cells; untransfected HEK293 cells (endogenous Tyro3) serve as comparison; also called Tyro3-transfected cells
T3 sequence (receptor, looked up): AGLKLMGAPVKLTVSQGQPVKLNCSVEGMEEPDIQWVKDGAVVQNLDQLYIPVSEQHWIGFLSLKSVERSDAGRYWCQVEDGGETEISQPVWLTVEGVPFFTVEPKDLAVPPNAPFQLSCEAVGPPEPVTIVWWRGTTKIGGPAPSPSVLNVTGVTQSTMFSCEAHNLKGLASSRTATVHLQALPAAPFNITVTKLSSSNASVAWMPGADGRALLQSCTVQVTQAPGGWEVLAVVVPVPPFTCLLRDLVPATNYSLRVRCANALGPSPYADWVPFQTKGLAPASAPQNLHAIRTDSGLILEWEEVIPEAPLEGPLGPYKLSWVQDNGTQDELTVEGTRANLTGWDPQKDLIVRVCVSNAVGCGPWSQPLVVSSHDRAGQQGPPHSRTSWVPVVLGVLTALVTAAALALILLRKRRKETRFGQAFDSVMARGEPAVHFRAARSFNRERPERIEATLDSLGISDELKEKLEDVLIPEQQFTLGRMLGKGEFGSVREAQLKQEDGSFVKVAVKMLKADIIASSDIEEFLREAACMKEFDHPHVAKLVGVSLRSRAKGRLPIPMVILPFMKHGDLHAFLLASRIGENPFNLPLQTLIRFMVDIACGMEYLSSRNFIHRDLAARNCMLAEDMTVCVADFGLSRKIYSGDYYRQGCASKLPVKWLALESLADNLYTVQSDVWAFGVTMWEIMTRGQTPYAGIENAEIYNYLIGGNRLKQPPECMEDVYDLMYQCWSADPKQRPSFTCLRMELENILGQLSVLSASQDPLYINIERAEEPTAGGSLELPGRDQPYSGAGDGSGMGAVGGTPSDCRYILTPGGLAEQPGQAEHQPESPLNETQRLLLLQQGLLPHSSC
Kind of experiment: flow cytometry, 1 µg IgG per 5E5 live HEK293 cells, PE anti-human lambda. The method, then: FIG. 9: Binding of anti-Tyro3 IgGs in living cells. HEK293 cells transfected to express recombinant human Tyro3 and HEK293 untransfected cells were stained with the Live-Dead NIR dye and either incubated with the TYRO 3-specific MAB859 monoclonal antibody, its isotype control (upper panels) or to individual anti-Tyro3 IgG (middle and bottom panels). IgG isotype control is IGX2656. […] Data were acquired using an ARIA III flow cytometer (Becton Dickinson) and analyzed using the Kaluza software (Beckman Coulter). Histograms shown are restricted to live cells that show a characteristic size and granulometry of HEK293 cells. Anti-Tyro3 IgG Tyro3-specific binding is shown by fluorescence intensity increase of Tyro3-transfected cells (black line) compared to untransfected cells (grey line).
To determine the individual IgG ability to further bind Tyro3-transfected cells than untransfected cells, 5^E5 untransfected and Tyro3-transfected cells were exposed to Live-Dead NIR dye (Life Technologies, #L10119) and 1 μg of each IgX in PBS for 30 minutes at 4° C. […] Cells were washed and PE fluorescence of at least 10,000 live cells was immediately recorded on an ARIA III flow cytometer (Beckton Dickinson) (middle and bottom panels of FIG. 9). IgG ability to bind overexpressed Tyro3 was determined with overlay histograms showing PE expression profile of untransfected and Tyro3-transfected cell. […]
Background: A flow cytometer gives signals particle by particle.

Experiment [10] has as its target T1, recombinant His-Strep tagged human …. As to the kind of experiment: sandwich ELISA, Strep-tagged hTyro3 ECD captured on StrepMAB plate, IgG 3-fold from 3 µg/mL, anti-human IgG1-HRP. Here is the method: as §2
(In general: In an ELISA, binding on a coated surface is turned into a signal by an enzyme label.)

Data on four molecules can be found in patent publication US20180105596A1 (ELSALYS BIOTECH, published 2018).

Broadly, the Kd is the constant that tells how readily two partners part at equilibrium. By kon is commonly meant a measure of how fast the partners come together. By koff is commonly meant a measure of how fast the partners let go of each other. One may read the EC50 (read off the curve) as the concentration at which the effect is half-maximal.

B1: IgG2410 (antibody, V domains shown)
VH: EVQLVQSGADVKKPGASLTISCQASGYTFTDYWISWVRQKPGKGLEWMGQIVPRASRTNYGPSFQGHVTISADRSTATAYLQWRSLEASDTAMYYCVRPYFQTSGGTIPEYYQHWGPGTLVTVSS
VL: SYELTQPPSVSVSPGQTARITCSGDALPKKYAYWYQQKSGQAPVLVIYEDEKRASGIPERFSGSSSGTMATLTISGAQVEDEADYYCYSQERNGNYAVFGGGTKLTVL
notes: also called IGX2410
As to B1, the kobs in [1] was determined as 0.0145 s⁻¹. Also, the equilibrium dissociation constant (Kd) in [2] came to 58.9 nM. The kon in experiment [3] was determined as 120000 M⁻¹ s⁻¹. The dissociation rate constant (koff) in experiment [4] came to 0.00704 s⁻¹. Also, the binding result in experiment [5] was “binds”.

B2: IgG2412 (antibody, V domains shown)
VH: EVQLVQSGADVKKPGASLTISCQASGYTFTDYWISWVRQKPGKGLEWMGRIRPLLSHTMYGPSFQGHVTISADRSTATAYLQWRSLEASDTAMYYCVRSWLATSGGTIPEYYQHWGPGTLVTVSS
VL: SYELTQPPSVSVSPGQTARITCSGDALPKKYAYWYQQKSGQAPVLVIYEDAKRVSGIPERFSGSSSGTMATLTISGAQVEDEADYYCYSASANGNYRVFGGGTKLTVL
notes: also called IGX2412
Turning to B2, in experiment [1], the kobs came out at 0.0175 s⁻¹. Also, the Kd in experiment [6] was 135 nM. Also, the kon in experiment [7] was determined as 67400 M⁻¹ s⁻¹. In [8], the koff was found to be 0.0091 s⁻¹. Moreover, the binding result in experiment [5] was “binds”.

B3: IgG2717 (antibody, V domains shown)
VH: EVQLVQSGADVKKPGASLTISCQASGYTFTDYWISWVRQKPGKGLEWMGEIFLPPSTTVYGPSFQGHVTISADRSTATAYLQWRSLEASDTAMYYCVRQTRLTSGGTIPEYYQHWGPGTLVTVSS
VL: SYELTQPPSVSVSPGQTARITCSGDALPKKYAYWYQQKSGQAPVLVIYEDNKRGSGIPERFSGSSSGTMATLTISGAQVEDEADYYCYSKSPEGNYMVFGGGTKLTVL
notes: also called IGX2717
On to B3, for which the binding result in experiment [9], in experiment [10] and in experiment [5] was “binds” each time.

B4: IgG2411 (antibody, V domains shown)
VH: EVQLVQSGADVKKPGASLTISCQASGYTFTDYWISWVRQKPGKGLEWMGSITRSSSRTHYGPSFQGHVTISADRSTATAYLQWRSLEASDTAMYYCVRGYTHLRTWGPGTLVTVSS
VL: SYELTQPPSVSVSPGQTARITCSGDALPKKYAYWYQQKSGQAPVLVIYEDSKRSSGIPERFSGSSSGTMATLTISGAQVEDEADYYCYSANQRGNYMVFGGGTKLTVL
notes: also called IGX2411
For B4, the “EC50 (read off the curve)” value in experiment [10] and in experiment [5] was ~0.02 µg/mL throughout.
